Results from PMC8896507.

Key:
[1] = target: DNA-PK assembly (KU-DNA-DNA-PKcs) (human (endogenous in HeLa)) (UniProt P78527); test: SEC-MALS + other: SAXS
[2] = target: KU (KU70/KU80 heterodimer) (human (endogenous in HeLa)) (UniProt P12956); test: SEC-MALS + other: SAXS

weight of the dimer in the two-state SAXS fit [1]	stoichiometry N [2]	Substance
24%		DNA-PK assembly (KU-DNA-DNA-PKcs) (from UniProt P78527 1-4128; P12956 1-609; P13010 1-732) (complex)
	2	KU (KU70/KU80 heterodimer) (from UniProt P12956 1-609; P13010 1-732) (complex)
